Results on 2 molecules are retold here after publication PMC4880191, “SUMO-Modification of the La Protein Facilitates Binding to mRNA In Vitro and in Cells”.

The series has as its target T1, La (LARP3), native (human, UniProt P05455 1-408).
T1 sequence: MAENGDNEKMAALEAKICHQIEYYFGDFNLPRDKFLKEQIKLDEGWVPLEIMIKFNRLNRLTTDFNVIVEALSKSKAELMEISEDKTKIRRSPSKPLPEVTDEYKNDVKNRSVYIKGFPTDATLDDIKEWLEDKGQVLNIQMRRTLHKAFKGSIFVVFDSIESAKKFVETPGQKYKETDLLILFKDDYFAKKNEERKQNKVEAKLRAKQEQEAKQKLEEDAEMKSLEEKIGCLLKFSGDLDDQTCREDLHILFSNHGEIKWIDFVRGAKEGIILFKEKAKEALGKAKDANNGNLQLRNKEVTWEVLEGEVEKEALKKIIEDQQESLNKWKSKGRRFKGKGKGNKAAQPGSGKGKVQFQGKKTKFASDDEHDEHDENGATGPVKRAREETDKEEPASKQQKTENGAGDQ
The series is described as follows: EMSA; most RNA (22 nM) bound at 200-400 nM La; titration 6-700 nM; L37/L22 EMSA: 1x binding buffer (from 2x: 3 mM MgCl2, 300 mM NaCl, 1 mM EDTA, 0.1% Nonidet P-40), i.e. 1.5 mM MgCl2, 150 mM NaCl, 0.5 mM EDTA, 0.05% NP-40; pH not stated; 22 nM RNA, 40 ul, 10 min at room temperature; native 10% PAGE in TBE. CCND1 EMSA as in ref 42. To be noted: protein: recombinant; tags: His6; label: 3'-Cy3; weak secondary structure.

B1: L22 TOP RNA (ssRNA)
RNA: CUCCUCUGCCGCCAUGGCUCCUGUGAAAAAGCUUGUG
On to B1, for which the binding result is “binds”.

B2: L37 TOP RNA (ssRNA)
RNA: UUCCGGUCUCUUUGGCCUCGCCGGUAGAAGCAAGAUG
B2: the binding result is reported as “binds”.
